{"source": "paper PMC3020944", "about": "“Structure-Activity Relationship of Cinnamaldehyde Analogs as Inhibitors of AI-2 Based Quorum Sensing and Their Effect on Virulence of Vibrio spp”", "target": "T1, GST-LuxR (Vibrio harveyi, UniProt P21308 1-205)", "T1 sequence": "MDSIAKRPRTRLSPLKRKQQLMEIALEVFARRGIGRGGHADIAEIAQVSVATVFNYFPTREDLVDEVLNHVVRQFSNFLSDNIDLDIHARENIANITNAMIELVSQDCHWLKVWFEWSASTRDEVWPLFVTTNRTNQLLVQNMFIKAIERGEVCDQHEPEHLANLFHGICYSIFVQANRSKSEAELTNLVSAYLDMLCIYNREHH", "assay": "fluorescence anisotropy; no inhibitor; Kd value only in Fig. 2B; 30°C; fluorescence polarisation, excitation 480 nm, emission 535 nm; binding buffer, salt and pH not given (as in ref 12); duplex annealed in NaCl-Tris-EDTA", "details": "protein: recombinant; tags: GST; chain copies: 2; label: 5' fluorescein on strand 1; blunt"}
{"binder": "V. harveyi consensus LuxR binding sequence (dsDNA) DNA 1: TATTGATAAATTTATCAATAA DNA 2: TTATTGATAAATTTATCAATA", "values": [{"measurement": "binding result", "value": "binds"}]}
